Results from patent US20230025360A1, “PROCESSES FOR GENERATING SUPERIOR ANTI-TUMOR T-CELL EFFECTOR AND MEMORY CELLS” (MUSC Foundation for Research Development, priority 2016, published 2023).

Legend:
Splenic T cells [1] = experiment: Splenic T cells activated with anti-CD3/28 in presence of α-KG; format: cell-based, C57BL/6 mouse; conditions: α-KG pretreatment for three days
Protocol: Splenic T cells from C57BL/6 mouse were activated with anti-CD3/28 (each 2 μg/ml) either in absence or presence of α-KG for three days, after which: (FIG. 10A) Glucose uptake was determined using 2NBDG, and (FIG. 10B) Tscm phenotype was evaluated using CD62L and CD44 cell surface expression. N=2.

Splenic T cells [2] = experiment: Homeostatic proliferation of IL2 or IL2+IL4 activated T cells in Rag1−/− recipients; format: in vivo, C57BL/6 mice; conditions: IL2+IL4 vs IL2, tracked at day 28
From the text: Splenic T cells from C57BL/6 mice on Thy1.1 or Thy1.2 background were activated for three days either in 1L2 or IL2+IL4 respectively, and mixed in 1:1 ratio before injecting i.v. in Rag1−/− recipients to determine any differences in homeostatic proliferation. Transferred T cells were tracked at day 28 by staining Thy1.1 and Th1.2 cells in various lymphoid and non-lymphoid tissues.

Pmel T cells = Pmel T cells activated with cognate antigen in presence of rTrx; format: cell-based
Protocol: (FIG. 7A) Three day activated gp100 epitope reactive splenic T cells from Pmel and Pmel−Trx mouse were re-stimulated overnight with cognate antigen, and supernatant was evaluated for secreted Trx by ELISA as per protocol. N=3 **p<0.005. (FIG. 7B) Pmel T cells were labeled with CFSE and stimulated with cognate antigen gp100 for three days. The expression of Trx was then determined using flurochrome conjugated antibody by gating on the cells in different phase of division. (FIG. 7C) CFSE labeled Pmel T cells were stimulated with cognate antigen in absence or presence of rTRx at various doses. Pmel T cells activated with cognate antigen in presence of rTrx (5 μg/ml) were used at day 3 to determine the expression of Trx (FIG. 7D), iGSH (FIG. 7E), pAMPK (FIG. 7F), stemness genes using qPCR (FIG. 7G), Annexin V upregulation after 4 hr of TCR restimulation with cognate antigen hgp100 or non-cognate ova peptide (FIG. 7H), and Glucose uptake using 2NBDG (FIG. 7I). N=2-3. Numerical values=MFI. *p<0.05, **p<0.01. (FIG. 7J) Melanoma epitope gp100 reactive T cells obtained from Pmel TCR transgenic mouse were activated with cognate antigen either in presence or absence of recombinant thioredoxin (rTrx) for three days before being adoptively transferred to the immunocompetent C57BL/6 recipient mice with ten day subcutaneously established murine melanoma B16-F10. Tumor measurements from two different experiments where Pmel and Pmel+rTrx were transferred to 9 recipient mice was compiled for this presentation. ***p value<0.01 obtained at last time point of the tumor measurement before the experiment was terminated.
To get an insight into the mechanism that may be responsible for the ability of co-injected Pmel T cells to respond to tumor rechallenge (as in FIG. 6), it was determined if Pmel−Trx secreted Trx upon antigen restimulation. […] Further, to determine how secreted Trx would have modulated the Pmel T cells, recombinant Trx was used during antigen induced in vitro Pmel activation and compared the phenotype with untreated Pmel and Pmel−Trx T cells. […] It has also been shown recently that Trx1-mediated reduction of Cys130 and Cys174 is essential for AMPK function, and decreased Trx levels could lead to oxidation of Cys130 and Cys174 by inducing aggregation that prevents its activation and phosphorylation by AMPK kinases (Shao D et al., 2014, Cell Metab, 19(2):232-45).

murine melanoma B16-F10 = experiment: Adoptive transfer of T cells activated in presence of rTrx; format: in vivo, C57BL/6 mice; conditions: gp100 reactive effector T cells generated in presence of rTrx
Protocol: (FIG. 7A) Three day activated gp100 epitope reactive splenic T cells from Pmel and Pmel−Trx mouse were re-stimulated overnight with cognate antigen, and supernatant was evaluated for secreted Trx by ELISA as per protocol. N=3 **p<0.005. (FIG. 7B) Pmel T cells were labeled with CFSE and stimulated with cognate antigen gp100 for three days. The expression of Trx was then determined using flurochrome conjugated antibody by gating on the cells in different phase of division. (FIG. 7C) CFSE labeled Pmel T cells were stimulated with cognate antigen in absence or presence of rTRx at various doses. Pmel T cells activated with cognate antigen in presence of rTrx (5 μg/ml) were used at day 3 to determine the expression of Trx (FIG. 7D), iGSH (FIG. 7E), pAMPK (FIG. 7F), stemness genes using qPCR (FIG. 7G), Annexin V upregulation after 4 hr of TCR restimulation with cognate antigen hgp100 or non-cognate ova peptide (FIG. 7H), and Glucose uptake using 2NBDG (FIG. 7I). N=2-3. Numerical values=MFI. *p<0.05, **p<0.01. […]
Further, it was determined if the strategy to activate and expand in presence of rTrx ex vivo would render tumor epitope reactive T cells with robust anti-tumor property.

NF-KB = NF-KB activity after addition of recombinant Trx; format: cell-based
[3] = TCR re-stimulation with cognate antigen (hgp100), cultured three days with recombinant Trx

For `O=C(O)CCC(=O)C(=O)O` [α-ketoglutarate], the “T cell phenotype (CD62L and CD44 cell surface expression)” value (Splenic T cells [1]) was “renders Tscm phenotype”.

B1: IL4: cytokine used with IL2 to pretreat T cells for three days (protein, UniProt P05112 25-153, looked up)
Interleukin-4: HKCDITLQEIIKTLNSLTEQKTLCTELTVTDIFAASKNTTEKETFCRAATVLRQFYSHHEKDTRCLGATAQQFHRHKQLIRFLKRLDRNLWGLAGLNSCPVKEANQSTLENFLERLKTIMREKYSKCSS
With B1 the “persistence of pretreated T cells in vivo” value (Splenic T cells [2]) was “improved persistence”.

B2: rTrx: recombinant thioredoxin added during ex vivo T cell activation (protein, UniProt P10599 2-105, looked up)
Thioredoxin: VKQIESKTAFQEALDAAGDKLVVVDFSATWCGPCKMIKPFFHSLSEKYSNVIFLEVDVDDCQDVASECEVKCMPTFQFFKKGQKVGEFSGANKEKLEATINELV
B2 was tested, and the “toxicity / cell division during T cell activation” value (Pmel T cells; CFSE labeled Pmel T cells, rTrx at various doses) was “non-toxic”, the “cell death as measured by Annexin V levels” value (Pmel T cells; [3]) was “reduced cell death” and the “glucose uptake (2NBDG)” value (Pmel T cells; [3]) was “reduced”. The pAMPK (Pmel T cells; compared to activated Pmel T cells) was “increased pAMPK”, the “Lef1 gene expression (qPCR, stemness genes)” value (Pmel T cells; rTrx 5 μg/ml, day 3) was “up-regulation” and the “Tcf7 gene expression (qPCR, stemness genes)” value (Pmel T cells; rTrx 5 μg/ml, day 3) was “up-regulation”. For the same molecule, the “expression of Trx” value (Pmel T cells; rTrx 5 μg/ml, day 3) was “increased expression”, the “expression of iGSH” value (Pmel T cells; rTrx 5 μg/ml, day 3) was “increased expression” and the “survival of transferred T cells in vivo” value (murine melanoma B16-F10) was “survive longer”. The tumor control (murine melanoma B16-F10) was “much improved tumor control” and the NF-KB activity (NF-KB) was “decrease”.
